Experimental data taken from the DeepSol protein solubility set.

Test: soluble on expression in E. coli; label from the status in PepcDB or PDB records

Sequence	soluble on expression in E. coli
MGSDKIHHHHHHMSSGITPPLIAGNLALDFINTQFGVGADRYECLNDDSSVVEWLHQAGVLNDTLAAPPAGLVERARELREDMQTLIVSAREGRGADPAIVNQVLERGHPIERLEWVPAYAAFQKQTYRRDLTSESLLQPVAQALVELLTKEDLHLVKECQAPDCVLLFHDQTKSHRRRWCSMASCGNRMKAAAHRARKSAT	not soluble
MGSDKIHHHHHHMAQMTPSQEPQSAAEYDDRTTAAVKSVLIEIGQILGSFKGKFAIIGGAVPWLLLANEDMPHVGTLDVDVGLDAEALGDGEYATLVGALQGHGYAQREGLRRFQLVRQVPARDGGEAIDVVVDFLMPRDAEIVRNNPPLISDFAVQRADGADLAMRFYQLVAVAGSMPDGGTNRVEIAVCSIPALLAMKGHALAGRYKQKDAYDIYYCVRNYPAGIEALAQECRPLLGHASGERGFLHIADKFDAFDGYGPTCVRRFVEDTQALGDRTPDQWQQDAFGQIDALLRAMALRG	not soluble
GPLGSMSAAIAKPSAKPSAHVDPKSAPLKEIPDVLVDPRTMKRYMRGRFLGKGGFAKCYEITDMDTKEVFAGKVVPKSMLLKPHQKEKMSTEIAIHKSLDNPHVVGFHGFFEDDDFVYVVLEICRRRSLLELHKRRKAVTEPEARYFMRQTIQGVQYLHNNRVIHRDLKLGNLFLNDDMDVKIGDFGLATKIEFDGERKKTLCGTPNYIAPEVLCKKGHSFEVDIWSLGCILYTLLVGKPPFETSCLKETYIRIKKNEYSVPRHINPVASALIRRMLHADPTLRPSVAELLTDEFFTSGYAPMRLPTSCLTVPPRFS	soluble
MGSDKIHHHHHHMKKYLLYMVQVHLNFRRAELESLADLYNLSIDFSQYDANSPFFIVELENDQQAKDWIKRSILTRGIYEYWGQGTTLDELHKDIQRQSNFEQDLQLKFKHSTFKFEFECYKGNSKAKRVEQIETFRYLGFEGKIDMKHPQEVFTVIEEYTPISENVGGKTPTRIYFGRQVQMSNRSAMEKYDLKKRPYKGTTSFEAELSLVSANIAQVKPGTIMYDPFAGTGSFLVAGGHFGSLVIGSDIDGRMIRGKGAQVNISANFKKYGESSQFLDVLTMDFTNNALRNNLVIDTILCDPPYGIRESIKVLGAKDPERFLGKEDMEIDGEKAYLRRDYIPTKKPYALDSLLDDLLQYSSERLPIGGRLAFWMPTANDANIETIVPMHENLELKYNCVQEFNKWSRRLLVYINRGSTFNGSSNHGIKRSKDNFRERYFNNFN	not soluble
LIGDKNTTFVEKLNSLAADHQLPQIGFSTSSEPEWQFVKDLTEVDPEHVVKSYNRQAKYHLNKNKQFCIKLRKIGRDELPAFKRITQQTADRLHYHDKSLDFYETLFDTYGKKAKFIFAEINFKEYSESIEKDLNDIQKKLTEIAGADYHNISDLSDFSASAKRHLSEGIKTETALQKRLQEAKKMHQEAKHDIVLVSVALFVIENQEVVYLYSGSDEKYEHLFAPYEIQDTMITEAVKERIPLYNFYGVSGKFDGSDGVLGFKTHFNGYTREMVGSFDFPVQKTKYYFYRLFKKILHRQ	not soluble
MKIFVCEDDQRQREHMVSIIKNYIMIEEKPMELALATNDPYEVLEQSKELNDIGCYFLDIQLEADMNGIKLASEIRKHDPVGNIIFVTSHSELTYLTFVYKVAAMDFIFKDDPSELKMRIIDCLETAHTRLKLLSKESNVDTIELKRGSNSVYVQYDDIMFFESSTKSHRLIAHLDNRQIEFYGNLKELAQLDERFFRCHNSFVINRHNIESIDSKERIVYFKNGENCFASVRNVKKI	not soluble
MNYKITTLVENCVYGRKLQAEHGLSLYIETPENRLLFDTGASDLFIRNARLLNIDLQKVDYLVLSHGHSDHTGGLRHFLELNAEATVVCKREVFFSKFKDERENGMKYTRSLDLSRFRFIDELTELVPGVFLFPSVDIIDPKDTHFERFWIQKEDGSRVPDTFPDELAMVLVEPEGLSILSACSHRGITNILRTVRTAFPELPCNLLLGGFHIHNAEESKYQVIADYLHEYLPQKIGVCHCTGVDKYAFFYKDFGDRIFYNHTGKLIQTDSLL	not soluble
MANDKIVIHGARAHNLKNIDVTIPRDKMVVVTGLSGSGKSSLAFDTLYAEGQRRYVESLSAYARQFLGQMDKPDVDSIDGLSPAISIDQKTTSKNPRSTVGTVTEINDYLRLLFARVGHPICPNDHIEITSQSVEQMVDKVLELPERTKIQILAPVVVKKKGQHKKVFEMIQREGYVRMRVDGETYDVSEAPELEKNKKHDIAIVIDRIVVKEGIRSRLFDSFEAALRLAEGYAIVDVIGQEEMLFSEHYACPYCGFTVGELEPRLFSFNAPFGACPDCDGLGVKLEVDKDLVIPDPTKTLREGAIVPWNPISSQYYPQMLEQAATSFGIDMDTPFEELPADQQEIILNGSGEKNFHFHYENDFGGVRDVEVPFEGILKNIKRRYHETNSDFTRDQMRLYMTELTCRSCQGYRLNPQALAVKINGTHIGEVSELAIKNAVQFFEGVSLSEQETTIARPILKEVEDRLTFLKNVGLDYLTLSRAAGTLSGGEAQRIRLATQIGSNLSGVLYILDEPSIGLHQRDNDRLIDSLKKMRDLGNTLIVVEHDEDTMMASDYLIDVGPGAGHLGGEIVAAGTPEEVAKNPHSLTGQYLSGKKVIPVPKERRKGNGKAIKVTGASENNLKNVSVEFPLGEFVAVTGVSGSGKSTLVNQILKKALAQKLNRNSNKPGKHKSITGYEAIEKIVDIDQSPIGRTPRSNPATYTSVFDDIRDLFAQTNEAKVRGYKKGRFSFNVKGGRCEACRGDGIIKIEMHFLPDVYVPCEVCHGKRYNSETLEVHYKGKNISDILDMTVEDAVEFFKHIPKIHRKLQTIVDVGLGYVTLGQPATTLSGGEAQRMKLASELHKNSNGKNFYILDEPTTGLHTDDIARLLLVLERLVEAGNTVLVIEHNLDVIKSADHVIDLGPEGGDGGGTIVATGTPEEVAKVKDSYTGYYLKRVLK	not soluble
MGSDKIHHHHHHMMGEFEAIRPYSDAEVPAVLQRLLSDDAFLGALVRYRFPRLAGPLGWLLKPLIAHRLAREVTGIRSVATLQDKFEPYVDHTIEKATDGVTYSGVNRLKPGCAYLFIANHRDIVMDPAFVNYAVYHAGLPTPRIAIGDNLLQKSFVSDLMRLNKSFIVHRSLSGRREKLAAYQTLSAYINHSIREDRQSVWIAQAEGRAKDGDDRTDSAILKMFHMSRKDEPFAEMVRALHFIPVSISYEYDPCDLAKARELHTRASTGEYRKAPGEDDASIALGITGYKGRVHINFGAELEGEFSDAKQLAAELDRQILGNYRLFPVHYLAYEMSENRDPGLAVPTAESLFGSEELEKARKEWNRRLEQCPAEQRSWLVLQYANPVLNQYRIKQQS	not soluble
MVRTVKSYNGEADDLAGQIHTLPAVWVTYGGSKVEPASTGGVCGRYQDTAEFVVMVAARNLRNEQAQRQGGIDSREIGSNDLIRAVRRLLDGQRLGFADSRGLVPKAVRAIANHVLVQNAAVSIYAVEYAIRFNTCGLENDRYPERTDNPDDPNHIFTKYQGTLSEPWPDFEGLDGKIYDPQSADEIPVNLTLKDKQ	not soluble
MDYRVLLYYKYTTIDDPELFATEHLAFCKDLELKGRILVSTEGINGTVSGTVEATDKYMEALKNDARFQGITFKVDEAEGHAFKKMHVRPRQEIVALDLEDDVNPRELTGNYLSPKEFREALLSDDTVVIDARNDYEYDLGHFRGAVRPDITRFRDLPDWIKENKEQFMDKKIVTYCTGGIRCEKFSGYLLKEGFEDVSQLEGGIATYGKDPETKGEFWDGKMYVFDERISVEVNHVDKTVVGKEWFDGTPCERYINCSNPECNKQILVSEENEARYLGACSHECAKHENNRYVKKHNISDEEKAKRLENFKELVKLEHHHHHH	not soluble
MGSDKIHHHHHHMKIAVLNQKGGSGKTTVSIHLAHAFSMIGYRVLLVDTDPQGSTRDWAAARNGEAPFSVIGLDRPILHKELPKLAQGYDFVFIDGAPRVSDLTRSAIMAVDFVLVPVQPSPLDVWAVHEVVELVQEATIYKPDLTAAFLINRKIANTALGREVTEVLGEYPFPVLKAQISQRVAFAECLNIGSTVLEAAPKSAASDEVRAVVEEILEAREETNHGRS	not soluble
MSLNSAMDKILVVNEGGELLRFKAMQQDLLYESLLKNHCYHTAYYLNSFDRLSLQENRARALFLVNKPDANTIFAKYQADRGYGDALELGVVYRTEFEKMLSVSVSGEEYHVTFSSVLSIINGNDVRKIRILSEGTVIRTTPRFPENTSGFFFRTYNQQYEMEGHHHHHH	soluble
